Results published in patent US6441131B1, “Peptides, method for assaying human pepsinogen II or human pepsin II, and assaying kit” (Ono Pharmaceutical Co., Ltd., priority 1997, dated 2002).
Non-standard residues stand in square brackets, D forms with d. Primed or numbered codes have the meaning given here. No end group written: not given here. *: point of attachment. DCHA″ = 3,5-dichloro-4-hydroxyaniline residue, Oc1c(Cl)cc(N*)cc1Cl; Phe(4-Cl) = N[C@@H](Cc1ccc(Cl)cc1)C(=O)O; Phe(4-I) = N[C@@H](Cc1ccc(I)cc1)C(=O)O; 2Nal = N[C@@H](Cc1ccc2ccccc2c1)C(=O)O; pNA = O=[N+]([O-])c1ccc(N*)cc1; NH(3-MeOPh) = COc1cccc(N*)c1; Nva = CCC[C@H](N)C(=O)O; Sar = CNCC(=O)O

Legend:
human pepsin II = molecular target: T1, human pepsin II (Homo sapiens, UniProt P20142); experiment: Digesting of the peptide substrate by human pepsin II (assay by HPLC); format: biochemical; details: for ration of digesting rate (pepsin II/ pepsin I): calculated from the HPLC digesting rates, pepsin II over pepsin I; for pepsin II digesting rate: peptide 0.5 mM, tartaric acid or glycine buffer pH2.0, 37° C., released amino acid derivative (II-A) by HPLC
T1 sequence (P20142 60-388): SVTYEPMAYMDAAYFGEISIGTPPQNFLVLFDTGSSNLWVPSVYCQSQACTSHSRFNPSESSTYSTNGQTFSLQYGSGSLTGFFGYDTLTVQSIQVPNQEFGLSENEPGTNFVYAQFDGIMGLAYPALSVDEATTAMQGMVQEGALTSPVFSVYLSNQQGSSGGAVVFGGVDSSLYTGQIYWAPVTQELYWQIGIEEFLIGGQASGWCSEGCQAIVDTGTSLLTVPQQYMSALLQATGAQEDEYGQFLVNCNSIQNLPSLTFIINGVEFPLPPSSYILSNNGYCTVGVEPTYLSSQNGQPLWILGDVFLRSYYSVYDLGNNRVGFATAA
Method: (§1) Tartaric acid buffer or glycine buffer (pH2.0) containing each peptide (0.5 mM) prepared in Examples 1 and 2(3) etc. (Examples in Table 3 described hereinafter).
(§2) An aqueous solution of human pepsin I or human pepsin II (0.01 mg/ml)
(§3) Enzyme solution I (0.1 ml) was added to Reagent (1.0 ml). After incubation of the mixture at 37° C. for 10, 30, 60 minutes, the mixture solution (0.3 ml) was collected. To the collected solution, 2N-NaOH (0.025 ml) was added to terminate the reaction. After addition of 2N-HCl (0.025 ml) to the mixture, protein was removed by the ultrafiltration. The assaying the amino acid derivatives of the formula (II-A) [drawing 19]
(§4) which was released after digesting by human pepsin in the obtained solution was carried out by HPLC using C18 column. The ratio of digesting rate of pepsin II/pepsin I was calculated according to the result from assay by HPLC. Such assay is carried out to confirm that a substrate was digested by pepsin I or pepsin II correctly and that the amino acid derivatives of the formula (II-A) were released.

human pepsin I = human pepsin I (Homo sapiens, UniProt P0DJD7); experiment: Digesting of the peptide substrate by human pepsin I (assay by HPLC); format: biochemical; details: peptide 0.5 mM, tartaric acid or glycine buffer pH2.0, 37° C., released amino acid derivative (II-A) by HPLC
Method: as §1, §2, §3, §4

human pepsin I, sequence (P0DJD7 63-388): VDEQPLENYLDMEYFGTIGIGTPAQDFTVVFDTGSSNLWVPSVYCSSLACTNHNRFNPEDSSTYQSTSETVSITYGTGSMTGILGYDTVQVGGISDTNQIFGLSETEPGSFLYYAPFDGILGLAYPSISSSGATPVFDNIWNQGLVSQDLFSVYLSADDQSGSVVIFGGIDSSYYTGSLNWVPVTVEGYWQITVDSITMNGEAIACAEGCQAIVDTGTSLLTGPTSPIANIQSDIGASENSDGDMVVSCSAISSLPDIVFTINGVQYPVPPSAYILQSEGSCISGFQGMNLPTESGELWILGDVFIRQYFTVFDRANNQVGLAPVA

2(25): Q=Pro Gln Gln Met; 2-Naphthyl; R4=Me; (EE)m single bond; Z=p-NA (PQQM[2Nal]A-pNA; also: TFA salt)
ration of digesting rate (pepsin II/ pepsin I) (human pepsin II): 889.7 | pepsin II digesting rate (human pepsin II): 5.56 μM/min · 1 μg Enz | pepsin I digesting rate (human pepsin I): 0.0063 μM/min · 1 μg Enz

2(78): Q=Leu Ser Glu; 2-Naphthyl; R4=Me; (EE)m=Leu; Z=p-NA (LSE[2Nal]AL-pNA; also: TFMSA salt)
ration of digesting rate (pepsin II/ pepsin I) (human pepsin II): 20.74 | pepsin II digesting rate (human pepsin II): 54.41 μM/min · 1 μg Enz | pepsin I digesting rate (human pepsin I): 2.6240 μM/min · 1 μg Enz

2(56): Q=Ser Leu Ser Glu; 2-Naphthyl; R4=Me; (EE)m single bond; Z=p-NA (SLSE[2Nal]A-pNA; also: TFMSA salt)
ration of digesting rate (pepsin II/ pepsin I) (human pepsin II): 562.6 | pepsin II digesting rate (human pepsin II): 10.94 μM/min · 1 μg Enz | pepsin I digesting rate (human pepsin I): 0.0194 μM/min · 1 μg Enz

ProLeuSerGluAla(2-Naph)Ala-pNA (PLSE[2Nal]A-pNA) [Example 1]
ration of digesting rate (pepsin II/ pepsin I) (human pepsin II): 198.2 | pepsin II digesting rate (human pepsin II): 55.40 μM/min · 1 μg Enz | pepsin I digesting rate (human pepsin I): 0.2795 μM/min · 1 μg Enz

2(33): Q=Pro Gln Glu Glu; 2-Naphthyl; R4=Me; (EE)m single bond; Z=p-NA (PQEE[2Nal]A-pNA; also: TFMSA salt)
ration of digesting rate (pepsin II/ pepsin I) (human pepsin II): 402.3 | pepsin II digesting rate (human pepsin II): 25.41 μM/min · 1 μg Enz | pepsin I digesting rate (human pepsin I): 0.0632 μM/min · 1 μg Enz

2(61): Q=Ac Lys Asn Leu Ser Glu; 2-Naphthyl; R4=Me; (EE)m single bond; Z=p-NA (Ac-KNLSE[2Nal]A-pNA; also: TFMSA salt)
ration of digesting rate (pepsin II/ pepsin I) (human pepsin II): 219.0 | pepsin II digesting rate (human pepsin II): 36.81 μM/min · 1 μg Enz | pepsin I digesting rate (human pepsin I): 0.1681 μM/min · 1 μg Enz

2(45): Q=Pro Thr Ser Glu; 2-Naphthyl; R4=Me; (EE)m single bond; Z=p-NA (PTSE[2Nal]A-pNA; also: TFMSA salt)
ration of digesting rate (pepsin II/ pepsin I) (human pepsin II): 161.4 | pepsin II digesting rate (human pepsin II): 40.55 μM/min · 1 μg Enz | pepsin I digesting rate (human pepsin I): 0.2512 μM/min · 1 μg Enz

2(16): Q=Asn Pro Gln Gln Ala; 4-I-Phenyl; R4=Me; (EE)m single bond; Z=p-NA (NPQQA[Phe(4-I)]A-pNA; also: TFA salt)
ration of digesting rate (pepsin II/ pepsin I) (human pepsin II): 1094.8 | pepsin II digesting rate (human pepsin II): 8.95 μM/min · 1 μg Enz | pepsin I digesting rate (human pepsin I): 0.0082 μM/min · 1 μg Enz

Nα-Me-GlyLeuSerGluAla(2-Naph)Ala-pNA.TFMSA ([Sar]LSE[2Nal]A-pNA; also: TFMSA salt) [Example 2(70)]
ration of digesting rate (pepsin II/ pepsin I) (human pepsin II): 158.4 | pepsin II digesting rate (human pepsin II): 49.56 μM/min · 1 μg Enz | pepsin I digesting rate (human pepsin I): 0.3128 μM/min · 1 μg Enz

2(24): Q=Pro Gln Gln Gly; 2-Naphthyl; R4=Me; (EE)m single bond; Z=p-NA (PQQG[2Nal]A-pNA; also: TFA salt)
ration of digesting rate (pepsin II/ pepsin I) (human pepsin II): 2081.6 | pepsin II digesting rate (human pepsin II): 12.06 μM/min · 1 μg Enz | pepsin I digesting rate (human pepsin I): 0.0058 μM/min · 1 μg Enz

2(22): Q=Pro Gln Gln Asn; 2-Naphthyl; R4=Me; (EE)m single bond; Z=p-NA (PQQN[2Nal]A-pNA; not fully specified)
ration of digesting rate (pepsin II/ pepsin I) (human pepsin II): 222.6 | pepsin II digesting rate (human pepsin II): 12.87 μM/min · 1 μg Enz | pepsin I digesting rate (human pepsin I): 0.0578 μM/min · 1 μg Enz

2(57): Q=Thr Leu Ser Glu; 2-Naphthyl; R4=Me; (EE)m single bond; Z=p-NA (TLSE[2Nal]A-pNA; also: TFMSA salt)
ration of digesting rate (pepsin II/ pepsin I) (human pepsin II): 660.9 | pepsin II digesting rate (human pepsin II): 18.78 μM/min · 1 μg Enz | pepsin I digesting rate (human pepsin I): 0.0284 μM/min · 1 μg Enz

2(39): Q=Pro Met Ser Glu; 2-Naphthyl; R4=Me; (EE)m single bond; Z=p-NA (PMSE[2Nal]A-pNA; also: TFMSA salt)
ration of digesting rate (pepsin II/ pepsin I) (human pepsin II): 201.1 | pepsin II digesting rate (human pepsin II): 45.79 μM/min · 1 μg Enz | pepsin I digesting rate (human pepsin I): 0.2277 μM/min · 1 μg Enz

2(63): Q=Pro Asn Asn Leu Ser Glu; 2-Naphthyl; R4=Me; (EE)m single bond; Z=p-NA (PNNLSE[2Nal]A-pNA; also: TFMSA salt)
ration of digesting rate (pepsin II/ pepsin I) (human pepsin II): 169.2 | pepsin II digesting rate (human pepsin II): 29.84 μM/min · 1 μg Enz | pepsin I digesting rate (human pepsin I): 0.1763 μM/min · 1 μg Enz

2(23): Q=Pro Gln Gln Gln; 2-Naphthyl; R4=Me; (EE)m single bond; Z=p-NA (PQQQ[2Nal]A-pNA; also: TFA salt)
ration of digesting rate (pepsin II/ pepsin I) (human pepsin II): 308.8 | pepsin II digesting rate (human pepsin II): 5.90 μM/min · 1 μg Enz | pepsin I digesting rate (human pepsin I): 0.0191 μM/min · 1 μg Enz

2(11): Q=Pro Gln Gln Ala; 2-Naphthyl; R4=n-Pr; (EE)m single bond; Z=p-NA (PQQA[2Nal][Nva]-pNA; also: TFA salt)
ration of digesting rate (pepsin II/ pepsin I) (human pepsin II): 174.9 | pepsin II digesting rate (human pepsin II): 4.10 μM/min · 1 μg Enz | pepsin I digesting rate (human pepsin I): 0.0235 μM/min · 1 μg Enz

2(7): Q=Pro Gln Gln Ala; 4-Cl-Phenyl; R4=Me; (EE)m single bond; Z=p-NA (PQQA[Phe(4-Cl)]A-pNA; also: TFA salt)
ration of digesting rate (pepsin II/ pepsin I) (human pepsin II): 104.4 | pepsin II digesting rate (human pepsin II): 3.50 μM/min · 1 μg Enz | pepsin I digesting rate (human pepsin I): 0.0335 μM/min · 1 μg Enz

2(51): Q=Gly Leu Ser Glu; 2-Naphthyl; R4=Me; (EE)m single bond; Z=p-NA (GLSE[2Nal]A-pNA; also: TFMSA salt)
ration of digesting rate (pepsin II/ pepsin I) (human pepsin II): 333.8 | pepsin II digesting rate (human pepsin II): 54.43 μM/min · 1 μg Enz | pepsin I digesting rate (human pepsin I): 0.1631 μM/min · 1 μg Enz

2(3): Q=Pro Gln Gln Ala; 4-I-Phenyl; R4=H; (EE)m single bond; Z=p-NA (PQQA[Phe(4-I)]G-pNA; also: TFA salt)
ration of digesting rate (pepsin II/ pepsin I) (human pepsin II): 2065.1 | pepsin II digesting rate (human pepsin II): 4.23 μM/min · 1 μg Enz | pepsin I digesting rate (human pepsin I): 0.0020 μM/min · 1 μg Enz

2(83): Q=Sar Leu Ser Glu; 2-Naphthyl; R4=Me; (EE)m=Ala; Z=m-ASD ([Sar]LSE[2Nal]AA-{NH(3-MeOPh)}; also: TFMSA salt)
ration of digesting rate (pepsin II/ pepsin I) (human pepsin II): 29.87 | pepsin II digesting rate (human pepsin II): 70.66 μM/min · 1 μg Enz | pepsin I digesting rate (human pepsin I): 2.3660 μM/min · 1 μg Enz

2(18): Q=Ala Pro Gln Gln Ala; 4-I-Phenyl; R4=Me; (EE)m single bond; Z=p-NA (APQQA[Phe(4-I)]A-pNA; also: TFA salt)
ration of digesting rate (pepsin II/ pepsin I) (human pepsin II): 757.0 | pepsin II digesting rate (human pepsin II): 9.20 μM/min · 1 μg Enz | pepsin I digesting rate (human pepsin I): 0.0122 μM/min · 1 μg Enz

2(80): Q=Leu Ser Glu; 2-Naphthyl; R4=Me; (EE)m=Gly; Z=p-NA (LSE[2Nal]AG-pNA; also: TFMSA salt)
ration of digesting rate (pepsin II/ pepsin I) (human pepsin II): 105.48 | pepsin II digesting rate (human pepsin II): 15.77 μM/min · 1 μg Enz | pepsin I digesting rate (human pepsin I): 0.1500 μM/min · 1 μg Enz

Nα-Me-GlySerGlyAla(2-Naph)AlaAla-DCHA.TFMSA ([Sar]SG[2Nal]AA-{DCHA″}; also: TFMSA salt) [Example 2(84)]
ration of digesting rate (pepsin II/ pepsin I) (human pepsin II): 119.5 | pepsin II digesting rate (human pepsin II): 33.07 μM/min · 1 μg Enz | pepsin I digesting rate (human pepsin I): 0.2767 μM/min · 1 μg Enz

2(36): Q=Pro Asn Ser Glu; 2-Naphthyl; R4=Me; (EE)m single bond; Z=p-NA (PNSE[2Nal]A-pNA; also: TFMSA salt)
ration of digesting rate (pepsin II/ pepsin I) (human pepsin II): 193.5 | pepsin II digesting rate (human pepsin II): 21.22 μM/min · 1 μg Enz | pepsin I digesting rate (human pepsin I): 0.1096 μM/min · 1 μg Enz

2(34): Q=Pro Gln Asp Glu; 2-Naphthyl; R4=Me; (EE)m single bond; Z=p-NA (PQDE[2Nal]A-pNA; also: TFMSA salt)
ration of digesting rate (pepsin II/ pepsin I) (human pepsin II): 711.9 | pepsin II digesting rate (human pepsin II): 15.40 μM/min · 1 μg Enz | pepsin I digesting rate (human pepsin I): 0.0216 μM/min · 1 μg Enz

2(54): Q=Lys Leu Ser Glu; 2-Naphthyl; R4=Me; (EE)m single bond; Z=p-NA (KLSE[2Nal]A-pNA; also: TFMSA salt)
ration of digesting rate (pepsin II/ pepsin I) (human pepsin II): 176.7 | pepsin II digesting rate (human pepsin II): 48.39 μM/min · 1 μg Enz | pepsin I digesting rate (human pepsin I): 0.2739 μM/min · 1 μg Enz

2(53): Q=Gln Leu Ser Glu; 2-Naphthyl; R4=Me; (EE)m single bond; Z=p-NA (QLSE[2Nal]A-pNA; also: TFMSA salt)
ration of digesting rate (pepsin II/ pepsin I) (human pepsin II): 621.0 | pepsin II digesting rate (human pepsin II): 61.96 μM/min · 1 μg Enz | pepsin I digesting rate (human pepsin I): 0.0998 μM/min · 1 μg Enz

2(14): Q=Ac Lys Pro Gln Gln Ala; 4-I-Phenyl; R4=Me; (EE)m single bond; Z=p-NA (Ac-KPQQA[Phe(4-I)]A-pNA; also: TFA salt)
ration of digesting rate (pepsin II/ pepsin I) (human pepsin II): 410.2 | pepsin II digesting rate (human pepsin II): 3.85 μM/min · 1 μg Enz | pepsin I digesting rate (human pepsin I): 0.0094 μM/min · 1 μg Enz
